For the series, the system named is Bacillus subtilis. Put plainly: cleaved RNA product abundance (RNA/gDNA barcode ratio) relative to median wild-type variant (ratio to wild type); higher = more accumulation of the downstream cleavage product. The note with it: experiment (reporter, strain, medium): exp 8a: truncated aprE reporter, strain BJT201 with 2% xylose (RNase J1 expressed); cleavage site: glnRA (positions -5 to +31 mutated). The essentials:
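In LB at 37°C, B. subtilis cultures went from OD600 0.0003 to 0.3. Their chromosomes held barcoded reporter mRNAs, truncated aprE or tetM, with RNase Y cleavage-site windows mutagenized via oligos at a 9% error rate. Cleaved RNA, chosen by gel, was reverse transcribed and barcode-sequenced alongside genomic DNA barcodes with UMI collapsing, giving a per-construct RNA:gDNA ratio scaled to the median construct with the unmutated site. This scaled ratio is termed cleaved product abundance.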
“CGACATGTCCCGCTTCTTTCATTAATCCGTTAGCAAATGTTTTGCTATACACATTTACCTTTTAAGAGGAGGAAT”: the “cleaved RNA product abundance” value is 0.444.

Take “CGACATGTCCCGCTTCTTTCATTAATCCGTTAGCAAATGTTTTGCTATATAAATTTACCTTTTAAGAGGAGGAAT”: the “cleaved RNA product abundance” value came out at 0.499. “CGACATGTCCCGCTTCTTTCATTAATCCGTTAGCAAATGTTTTGCTATATACAATTACCTTTTAAGAGGAGGAAT”: the “cleaved RNA product abundance” value amounted to 1.76. As for “CGACATGTCCCGCTTCTTTCATTAATCCGTTAGCAAATGTTTTGCTATATACATTAACCTTTTAAGAGGAGGAAT”, the figure is 1.13.

For the sequence “CGACATGTCCCGCTTCTTTCATTAATCCGTTAGCAAATGTTTTGCTATATACATTCACCTTTTAAGAGGAGGAAT”, the “cleaved RNA product abundance” value was found to be 1.09. For “CGACATGTCCCGCTTCTTTCATTAATCCGTTAGCAAATGTTTTGCTATATACATTTAAATTTTAAGAGGAGGAAT”, the “cleaved RNA product abundance” value came out at 0.806. As for “CGACATGTCCCGCTTCTTTCATTAATCCGTTAGCAAATGTTTTGCTATATACATTTAACTTTTAAGAGGAGGAAT”, the figure is 1.03. As for “CGACATGTCCCGCTTCTTTCATTAATCCGTTAGCAAATGTTTTGCTATATACATTTACATTTTAAGAGGAGGAAT”, the figure is 1.23. For “CGACATGTCCCGCTTCTTTCATTAATCCGTTAGCAAATGTTTTGCTATATACATTTACCATTTAAGAGGAGGAAT” the value was 1.4. With “CGACATGTCCCGCTTCTTTCATTAATCCGTTAGCAAATGTTTTGCTATATACATTTACCCTTTAAGAGGAGGAAT”, the “cleaved RNA product abundance” value was found to be 0.852. In the case of “CGACATGTCCCGCTTCTTTCATTAATCCGTTAGCAAATGTTTTGCTATATACATTTACCTTTTAAGAGGAGGAAT”, the “cleaved RNA product abundance” value was 1.17.

Consider “CGACATGTCCCGCTTCTTTCATTAATCCGTTAGCAAATGTTTTGCTATATACATTTACTTTTTAAGAGGAGGAAT”, for which the “cleaved RNA product abundance” value is 1.2. On to “CGACATGTCCCGCTTCTTTCATTAATCCGTTAGCAAATGTTTTGCTATATACATTTTCCTTTTAAGAGGAGGAAT”, for which the “cleaved RNA product abundance” value amounted to 0.6. As for “CGACATGTCCCGCTTCTTTCATTAATCCGTTAGCAAATGTTTTGCTATATACTTTTACCTTTTAAGAGGAGGAAT”, the figure is 1.13; as for “CGACATGTCCCGCTTCTTTCATTAATCCGTTAGCAAATGTTTTGCTTTATACATTTACCTTTTAAGAGGAGGAAT”, 0.298; as for “CGACATGTCCCGCTTCTTTCATTAATCCGTTAGCAAATGTTTTGTTATATACATTTACCTTTTAAGAGGAGGAAT”, 0.554. “CGACATGTCCCGCTTCTTTCATTAATCCGTTAGCAAATGTTTTTCTATATACATTTACCTTTTAAGAGGAGGAAT”: the “cleaved RNA product abundance” value came out at 0.753.

On to “CGACATGTCCCGCTTCTTTCATTAATCCGTTAGCAAATTTTTTGCTATATACATTTACCTTTTAAGAGGAGGAAT”, for which the “cleaved RNA product abundance” value amounted to 1.19. With “CGACATGTCCCGCTTCTTTCATTAATCCGTTAGCAACAATTTTGCTATATACATTTACCTTTTAAGAGGAGGAAT”, the “cleaved RNA product abundance” value worked out at 1.04. “CGACATGTCCCGCTTCTTTCATTAATCCGTTAGCAACAGATTTGCTATATACATTTACCTTTTAAGAGGAGGAAT”: the “cleaved RNA product abundance” value amounted to 0.68. For “CGACATGTCCCGCTTCTTTCATTAATCCGTTAGCAACAGGTTTGCTATATACATTTACCTTTTAAGAGGAGGAAT” the value was 0.389; for “CGACATGTCCCGCTTCTTTCATTAATCCGTTAGCAACAGTTTTACTATATACATTTACCTTTTAAGAGGAGGAAT”, 0.561. For “CGACATGTCCCGCTTCTTTCATTAATCCGTTAGCAACAGTTTTGATATATACATTTACCTTTTAAGAGGAGGAAT” the value was 0.429; for “CGACATGTCCCGCTTCTTTCATTAATCCGTTAGCAACAGTTTTGCTATACACATTTACCTTTTAAGAGGAGGAAT”, 0.557. For “CGACATGTCCCGCTTCTTTCATTAATCCGTTAGCAACAGTTTTGCTATATAAATTTACCTTTTAAGAGGAGGAAT” the value was 0.69.

(Values after the supplement of paper PMC11780869.)
